Source: patent US20230038638A1, “COMPLEMENT FACTOR I-RELATED COMPOSITIONS AND METHODS” (published 2023)
Residue numbers refer to the chain shown, from its start.

Columns and labels:
[1] = molecular target: soluble human C3b (human) (UniProt P01024)
[2] = molecular target: T1, human C4b (human) (UniProt P0C0L5)
T1 sequence: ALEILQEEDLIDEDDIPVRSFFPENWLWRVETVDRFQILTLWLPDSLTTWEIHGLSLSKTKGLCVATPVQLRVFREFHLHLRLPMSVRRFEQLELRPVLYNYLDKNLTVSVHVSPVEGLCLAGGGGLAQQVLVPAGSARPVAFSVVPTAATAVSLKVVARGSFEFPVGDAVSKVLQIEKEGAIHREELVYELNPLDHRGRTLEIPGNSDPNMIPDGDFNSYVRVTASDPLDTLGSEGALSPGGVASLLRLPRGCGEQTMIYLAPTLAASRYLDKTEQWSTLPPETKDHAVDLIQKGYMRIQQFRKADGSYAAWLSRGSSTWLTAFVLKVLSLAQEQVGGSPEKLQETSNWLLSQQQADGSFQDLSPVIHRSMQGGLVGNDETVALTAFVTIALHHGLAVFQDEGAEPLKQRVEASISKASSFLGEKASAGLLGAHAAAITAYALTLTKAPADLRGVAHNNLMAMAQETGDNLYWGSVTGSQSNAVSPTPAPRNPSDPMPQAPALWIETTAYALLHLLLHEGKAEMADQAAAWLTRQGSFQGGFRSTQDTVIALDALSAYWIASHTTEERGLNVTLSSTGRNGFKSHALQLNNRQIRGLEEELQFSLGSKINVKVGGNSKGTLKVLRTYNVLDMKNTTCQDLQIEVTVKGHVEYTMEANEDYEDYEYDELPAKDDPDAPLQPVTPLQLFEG

[3] = molecular target: soluble human C3b (human) (UniProt P01024); remark: listed apart in the source
[4] = molecular target: T2, human C4b (human) (UniProt P0C0L4)
T2 sequence: T1 sequence with T151A, G317D, L364P, S365C, I368L, H369D, S420N, A451V, R454L, A530S

Substance	iC3b EC50 [3] [nM]	C4c EC50 (nM) [4] [nM]	also measured
CFI-HSA variant A502S (enzyme)	26.7	640	iC3b Screen Ref Fold (fold vs CFI-HSA wild type) [1]: 0.96; C4b Screen Ref Fold (fold vs CFI-HSA wild type) [2]: 0.36
CFI-HSA variant A502S; K504Q; F537K (enzyme)	31.2	810	iC3b Screen Ref Fold (fold vs CFI-HSA wild type) [1]: 1.07; C4b Screen Ref Fold (fold vs CFI-HSA wild type) [2]: 0.93
CFI-HSA variant D425R; Y408L; N531G; E457G; E461Q; R462K; F464Y (enzyme)	4.9	26.1	iC3b Screen Ref Fold (fold vs CFI-HSA wild type) [1]: 1.4; C4b Screen Ref Fold (fold vs CFI-HSA wild type) [2]: 4.93
CFI-HSA variant D506G (enzyme)	> 500	> 1000	iC3b Screen Ref Fold (fold vs CFI-HSA wild type) [1]: 0; C4b Screen Ref Fold (fold vs CFI-HSA wild type) [2]: 0.09
CFI-HSA variant E416A (enzyme)	12.8	425	iC3b Screen Ref Fold (fold vs CFI-HSA wild type) [1]: 1.08; C4b Screen Ref Fold (fold vs CFI-HSA wild type) [2]: 1.15
CFI-HSA variant E457A (enzyme)	16.9	113	iC3b Screen Ref Fold (fold vs CFI-HSA wild type) [1]: 1.43; C4b Screen Ref Fold (fold vs CFI-HSA wild type) [2]: 4.68
CFI-HSA variant E457D (enzyme)	12.3	162	iC3b Screen Ref Fold (fold vs CFI-HSA wild type) [1]: 1.21; C4b Screen Ref Fold (fold vs CFI-HSA wild type) [2]: 4.7
CFI-HSA variant E457F (enzyme)	96.8	> 1000	iC3b Screen Ref Fold (fold vs CFI-HSA wild type) [1]: 0.05; C4b Screen Ref Fold (fold vs CFI-HSA wild type) [2]: 0.01
CFI-HSA variant E457G; D425K (enzyme)	4.1	–	iC3b Screen Ref Fold (fold of CFI-HSA wild type) [1]: 1.5; C4b Screen Ref Fold (fold of CFI-HSA wild type) [2]: 5.33; C4c EC50 [4]: 43.3 nM
CFI-HSA variant E457G; D425R; E416A (enzyme)	3.1	59.3	iC3b Screen Ref Fold (fold of CFI-HSA wild type) [1]: 2.48; C4b Screen Ref Fold (fold of CFI-HSA wild type) [2]: 4.35
CFI-HSA variant K504D (enzyme)	53.1	> 1000	iC3b Screen Ref Fold (fold of reference) [1]: 0.17
CFI-HSA variant N531G; E457G; R462K (enzyme)	7.7	–	C4c EC50 [4]: 17.3 nM
CFI-HSA variant N531G; E461Q (enzyme)	5.4	–	C4c EC50 [4]: 24.2 nM
CFI-HSA variant N531G; E461Q; R462K (enzyme)	5.3	–	C4c EC50 [4]: 38.7 nM
CFI-HSA variant N531G; P535A; GGSSGG (SEQ ID NO: 6); CR1(ccp15-17) (enzyme)	20.4	–	C4c EC50 [4]: 60.1 nM
CFI-HSA variant N531G; P535A; R557A (enzyme)	47.5	28.2	–
CFI-HSA variant N531G; P535A; R557K (enzyme)	17	52.2	–
CFI-HSA variant N531G; WT; GGSSGG (SEQ ID NO: 6); CR1(ccp15-17) (enzyme)	36.7	–	C4c EC50 [4]: 60 nM
CFI-HSA variant R365A (enzyme)	64.3	> 1000	–
CFI-HSA variant R462K; F464Y (enzyme)	106	–	C4c EC50 [4]: > 1000 nM
CFI-HSA variant R557D (enzyme)	> 500	148	–
CFI-HSA variant R557E (enzyme)	> 500	151	–
CFI-HSA variant R557F (enzyme)	168	145	–
CFI-HSA variant R557G (enzyme)	> 500	143	–

Substance	iC3b EC50 [3] [nM]	C4c EC50 (nM) [4] [nM]	also measured
CFI-HSA variant R557H (enzyme)	198	98.8	–
CFI-HSA variant R557I (enzyme)	128	117	–
CFI-HSA variant R557L (enzyme)	113	177	–
CFI-HSA variant R557M (enzyme)	164	82	–
CFI-HSA variant R557N (enzyme)	360	154	–
CFI-HSA variant R557P (enzyme)	288	96.3	–
CFI-HSA variant R557Q (enzyme)	286	120	–
CFI-HSA variant R557S (enzyme)	208	247	–
CFI-HSA variant R557T (enzyme)	217	324	–
CFI-HSA variant R557V (enzyme)	165	138	–
CFI-HSA variant R557W (enzyme)	198	165	–
CFI-HSA variant R557Y (enzyme)	116	145	–
CFI-HSA variant T377G; E457G (enzyme)	5.9	20.7	–
CFI-HSA variant T377G; E457G; E461Q (enzyme)	4.5	14.9	–
CFI-HSA variant T377G; E457G; E461Q; N531G (enzyme)	4.3	10.9	–
CFI-HSA variant T377G; E461Q (enzyme)	6.5	28.4	–
CFI-HSA variant T377G; N531G (enzyme)	6.6	19.2	–
CFI-HSA variant Y408L; E457G; E461Q; R462K; N531G; R557A (enzyme)	24.2	27.4	–
CFI-HSA variant Y408L; E457G; E461Q; R462K; N531G; R557K (enzyme)	24.6	17.3	–
CFI-HSA variant Y408L; E457G; E461Q; R462K; N531G; ΔC-term (Δ558-PFISQYNV (SEQ ID NO: 14)-565) (enzyme)	131	111	–
CFI-HSA variant Y408L; N531G; E457G; R462K (enzyme)	6.9	–	C4c EC50 [4]: 23 nM
CFI-HSA variant Y408L; N531G; R557A (enzyme)	51.6	54.5	–
CFI-HSA variant Y408L; N531G; ΔC-term (Δ558-PFISQYNV (SEQ ID NO: 14)-565) (enzyme)	110	173	–
CFI-HSA variant Y408L; WT; GGSSGG (SEQ ID NO: 6); CR1(ccp15-17) (enzyme)	37.5	–	C4c EC50 [4]: 95.9 nM
